Experimental findings from PMC4275181, “Evolution of RNA-Protein Interactions: Non-Specific Binding Led to RNA Splicing Activity of Fungal Mitochondrial Tyrosyl-tRNA Synthetases” (PLoS Biology, 2014) are described below.

This data set deals with the molecule itself. The data set can be described thus: SAXS; molecular weight from forward scattering I(0) against a bovine serum albumin standard; free protein at at least three concentrations in 100 mM KCl, 5 mM MgCl2, 10 mM Tris-HCl (pH 7.5), 5% glycerol.

B1: CYT-18* (Neurospora crassa mitochondrial tyrosyl-tRNA synthetase lacking the mitochondrial targeting sequence and most of the C-tail) (enzyme)
chain: MLRREFGPKYTAKINEAEENWQARAEAIKKGKKQNTWDLFEERGYVKDTAGTKEHIAELMRTRRIGAYVGIDPTAPSLHVGHLLPLMPLFWMYLEGYKAFTLIGGSTAKIGDPTGRLKSRDHLSSSDATMNMTKIHYQLKKLWENVDTQMRARGYEADWARKRGIVNNNHWWNKQPMLEVLRRVGHALRIGPMLSRDTVKNKMTQGDGVSFAEFTYPIMQGWDWFELFYQQGVQMQIGGSDQYGNIISGLEVVKAARESEPDPQERKYVTPKTALDECVGFTVPLLTDSSGAKFGKSAGNAIWLDPYQTSVFDFYGYFVRRSDQEVENLLKLFTFMPISEITKTMEEHIKDPSKRVAQHTLAREVVTLVHGKQEASAAEDQHRMMYTGQMTIPQVSRAKDAATGGDQYKTISDQPVTLNNAPRIDMILPESLIMGKSIGRILYAAGLASSTTEGHKLAAAQGCYVGGAHRAGGENVTMNPDLISFMPVKLWFPGETQRYLINGNLLILRKGKHNVRVIQMVSDVEYAASGQTYPGQSFTGAVRKLNEIMKNL
notes: extra N-terminal methionine of the expression construct; stop codons introduced after Leu583; Derived from pEX560 (wild-type CYT-18, amino acids 33-669); also called CYT18/ΔC-tail; N. crassa mtTyrRS
B1: the “stoichiometry N” value is 2.

As a reminder, the stoichiometry N is a count of units in the complex or per binding partner.
